Measured values published in US20230030032A1 (AGGAMIN, published 2023).
Values belong to the binder of their own block, whether it stands above or below them.

How the values were obtained:
[1] = biological target: T1, endogenous sFlt-1 in pooled serum of pre-eclampsia patients (human, UniProt P17948-2 27-687, limits assumed); experiment: 0.1 ml column, 1 mg antibody/ml beads, pooled serum of pre-eclampsia patients
T1 construct: also called sVEGFR1; soluble Flt-1 receptor

purified human Bmp9 = biological target: T2, purified human Bmp9 (human, UniProt Q9UK05 320-429, limits assumed); experiment: sandwich ELISA: cENG10 coated at 4 ug/mL, serial dilutions of Bmp9 alone, bound Bmp9 detected with biotinylated anti-Bmp9 antibody and an HRP conjugate
T2 construct: also called Bone Morphogenetic Protein 9
T2 sequence (looked up): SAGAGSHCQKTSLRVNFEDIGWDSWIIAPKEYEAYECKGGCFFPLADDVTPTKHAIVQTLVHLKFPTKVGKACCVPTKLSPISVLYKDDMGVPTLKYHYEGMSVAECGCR
Description: (§1) For the ELISA experiment shown, cENG10 antibody was coated onto microplates and incubated with the analyte (a preformed Bmp9/sEng complex, Bmp9 alone, or sEng alone). Bound Bmp9 was detected using a biotinylated anti-Bmp9 antibody and a secondary, HRP-conjugated antibody, allowing for colorimetric detection of cENG10 binding to the Bmp9/sEng complex.
(§2) To test whether or not antibody cENG10 blocks binding of sEng and its ligands was assessed using a sandwich ELISA. To that end, purified human Bmp9 and sEng were mixed at equimolar ratio in PBS (final total concentration 1 μM), incubated for 30 min and serially diluted (in 1% BSA) to 0.02 to 20 nM. Control solutions containing only Bmp9 or sEng were also prepared. Antibody cENG10 (4 μg/mL) was coated onto microplate wells. After a washing step, the wells were blocked with 1% BSA. Serial dilutions of either the preformed Bmp9-sEng complex, sEng alone, or Bmp9 alone were added and the plates incubated for 90 min. After another wash step, bound Bmp9 was detected using a biotinylated anti-Bmp9 antibody and a secondary, HRP-conjugated antibody, allowing for colorimetric detection of cENG10 binding to the Bmp9/sEng complex.

[2] = biological target: T3, soluble Endoglin (sEng), recombinant, as spiked or purified protein (human, UniProt P17813 26-586, limits assumed); experiment: sandwich ELISA: cENG10 coated at 4 ug/mL, serial dilutions of preformed equimolar Bmp9/sEng complex, bound Bmp9 detected with biotinylated anti-Bmp9 antibody and an HRP conjugate
T3 construct: sEng applied to columns (80 or 60 ng/ml), used in SEC and coated in ELISA; construct not specified there; also called spiked sEng
T3 sequence (looked up): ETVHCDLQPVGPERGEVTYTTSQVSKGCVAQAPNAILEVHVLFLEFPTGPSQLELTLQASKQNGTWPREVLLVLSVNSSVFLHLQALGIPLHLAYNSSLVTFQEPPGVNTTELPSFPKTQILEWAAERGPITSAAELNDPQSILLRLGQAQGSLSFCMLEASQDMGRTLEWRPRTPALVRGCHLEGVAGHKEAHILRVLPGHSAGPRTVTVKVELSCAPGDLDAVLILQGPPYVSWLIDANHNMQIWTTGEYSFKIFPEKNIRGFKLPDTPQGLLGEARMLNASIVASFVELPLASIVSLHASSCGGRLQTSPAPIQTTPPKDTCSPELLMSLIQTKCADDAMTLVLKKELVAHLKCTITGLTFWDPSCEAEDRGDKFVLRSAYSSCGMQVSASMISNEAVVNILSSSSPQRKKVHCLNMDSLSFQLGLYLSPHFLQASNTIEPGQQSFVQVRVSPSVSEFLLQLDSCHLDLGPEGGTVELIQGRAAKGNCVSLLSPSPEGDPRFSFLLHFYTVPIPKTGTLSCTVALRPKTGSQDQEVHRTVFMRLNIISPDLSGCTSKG
Description: as §1, §2

[3] = biological target: T4, recombinant human (rh) Endoglin ectodomain (residues 1-586) containing C-terminal 6xHis tag (human, UniProt P17813 26-586); experiment: BLI (Octet QK), purified MAb on Protein-G biosensor, sEng 1-586 6xHis 50 nM in solution
T4 construct: range 1-586; Purified from HEK-293 cells; the stated range 1-586 includes the signal peptide; also called purified sEng antigen; sEng
T4 sequence: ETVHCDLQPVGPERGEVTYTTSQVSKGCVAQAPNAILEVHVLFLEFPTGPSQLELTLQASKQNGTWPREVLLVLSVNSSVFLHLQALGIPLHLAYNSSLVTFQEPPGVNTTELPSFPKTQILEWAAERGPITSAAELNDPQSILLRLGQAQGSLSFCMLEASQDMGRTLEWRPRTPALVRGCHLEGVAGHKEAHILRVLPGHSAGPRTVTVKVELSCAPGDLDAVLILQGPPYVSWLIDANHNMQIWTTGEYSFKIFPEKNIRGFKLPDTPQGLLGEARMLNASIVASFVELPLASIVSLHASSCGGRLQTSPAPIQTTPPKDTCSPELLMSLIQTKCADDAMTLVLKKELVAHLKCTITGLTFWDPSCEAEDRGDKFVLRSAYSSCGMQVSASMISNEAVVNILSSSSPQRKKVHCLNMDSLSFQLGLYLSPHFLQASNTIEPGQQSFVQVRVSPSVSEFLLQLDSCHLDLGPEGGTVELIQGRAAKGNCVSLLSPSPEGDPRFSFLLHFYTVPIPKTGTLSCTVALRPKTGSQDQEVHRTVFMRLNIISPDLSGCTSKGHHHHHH
Description: Materials: Kinetics buffer—PBS solution containing 0.1% BSA and 0.05% Tween-20. Anti-sEng antibodies were purified from ascites of mice injected with hybridoma cells by Protein-G chromatography and buffer exchanged into PBS. For each run, 22 ug/ml (or 150 nM) of each antibody was loaded onto the Protein-G biosensor tip. Purified sEng antigen recombinant human (rh) Endoglin ectodomain (residues 1-586) containing C-terminal 6×His tag was purified from HEK-293 cells by metal affinity chromatography followed by size-exclusion chromatography pre-equilibrated in PBS. For each run, 3 ug/ml (or 50 nM) of sEng was used for association to MAbs bound to Protein-G biosensor tips. Protein-G Biosensor tips were purchased from the instrument supplier.

[4] = biological target: T5, recombinant human (rh) Endoglin ectodomain (residues 1-586) fused with human IgG1 Fc (human, UniProt P17813 26-586); experiment: BLI (Octet QK), MAb from hybridoma supernatant captured on anti-mouse IgG biosensor, sEng-Fc 170 nM in solution
T5 construct: range 1-586; The stated range 1-586 includes the signal peptide, which would be absent from the secreted protein; also called sEng-Fc; sEng/Fc fusion protein; not shown: human IgG1 Fc
T5 sequence (looked up): T3 sequence (looked up)
Description: Materials: Kinetics buffer—PBS solution containing 0.1% BSA and 0.05% Tween-20 was used as the kinetics buffer. Test samples—culture supernatants from top 21 hybridoma clones with the strongest signals for binding to the sEng-Fc antigen as determined by ELISA. sEng antigen—recombinant human (rh) Endoglin ectodomain (residues 1-586) fused with human IgG1 Fc, diluted to 170 nM (30 ug/ml) with kinetics buffer. Biosensors—streptavidin biosensors, preloaded with biotinylated sheep anti-mouse IgG.
Binding affinities were determined using the ForteBio label-free Octet QK BLI system using the following protocol: [0237] i. Condition: Immerse biosensor tips in 200 uL of kinetics buffer for >10 min. [0238] ii. Baseline 1: Immerse biosensors in fresh culture medium for 1 min. [0239] iii. Load: Immerse biosensors in culture supernatant samples containing MAbs for 3 min. [0240] iv. Baseline: Immerse biosensors in kinetics buffer for 1 min. [0241] v. Binding/Association: Incubate biosensors with sEng-Fc Antigen for 5 min. [0242] vi. Dissociation: Incubate biosensors in kinetics buffer for 5 min.
Response signals (nm shifts) were used to calculate Kd values for the different antibodies.

T1 sequence (P17948 other isoform, or with tags, fused parts or gaps limits assumed): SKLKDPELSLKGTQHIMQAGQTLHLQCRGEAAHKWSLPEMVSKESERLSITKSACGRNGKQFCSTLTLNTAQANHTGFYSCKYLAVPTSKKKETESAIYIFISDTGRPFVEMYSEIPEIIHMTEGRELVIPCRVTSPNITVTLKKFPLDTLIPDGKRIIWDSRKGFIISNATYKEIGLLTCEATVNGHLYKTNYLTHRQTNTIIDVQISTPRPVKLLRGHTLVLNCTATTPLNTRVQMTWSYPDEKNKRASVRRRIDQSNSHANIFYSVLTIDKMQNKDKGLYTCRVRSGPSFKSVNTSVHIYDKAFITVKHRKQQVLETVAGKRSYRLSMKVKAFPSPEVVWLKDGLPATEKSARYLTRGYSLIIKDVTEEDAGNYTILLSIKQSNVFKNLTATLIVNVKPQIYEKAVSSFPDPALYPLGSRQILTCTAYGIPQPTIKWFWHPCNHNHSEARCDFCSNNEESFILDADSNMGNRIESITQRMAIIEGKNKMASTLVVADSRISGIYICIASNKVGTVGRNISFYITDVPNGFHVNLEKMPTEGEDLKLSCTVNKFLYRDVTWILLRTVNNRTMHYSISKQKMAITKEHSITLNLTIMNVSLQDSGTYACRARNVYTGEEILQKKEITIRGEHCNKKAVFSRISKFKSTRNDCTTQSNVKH

- binding result [1]: no binding
- binding result (purified human Bmp9): no binding (tested: 20 nM)
- EC50 (read off the curve) [2]: ~3 nM
B1: chimeric anti-sEng antibody cENG10 (antibody, human IgG1, kappa, N297Q, V domains shown)
VH: EVQLEQSGPEVVKPGTSVKISCKTSGYTITEHTLHWIKQNQGKSLEWIGGINFDNGGTTYRQKFKDKATLTVDKSSSTAFMELRSLTSDDSAVYFCARRAYYYGSAFDYWGQGTTLTVSS
VL: ENVLTQSPAIMSASLGEKVTMTCRASSSVNYVYWYQQKSDASPKLWIYYTSNLAPGVPARFSGSGSGNSYSLTISSMEGEDAATYYCQQFISFPYTFGGGTKLEIKR
notes: Murine MAb 210 variable regions on human IgG1 / kappa constant regions; also called αEng; cENG10 (CHO-derived)

- Kd [3]: 2.2 nM
- Kd [4]: 0.61 nM
B2: MAb 210 (antibody, V domains shown)
VH: B1 VH
VL: ENVLTQSPAIMSASLGEKVTMTCRASSSVNYVYWYQQKSDASPKLWIYYTSNLAPGVPARFSGSGSGNSYSLTISSMEGEDAATYYCQQFISFPYTFGGGTKLEIK
notes: Murine monoclonal antibody from hybridoma; also called lead antibody
